Source: PMC5379037

B1: mW-box probe (dsDNA)
DNA 1: CGTAGACGGTAGACGGAGTAGACGTTTTA
DNA 2: TAAAACGTCTACTCCGTCTACCGTCTACG
B2: W-box probe (dsDNA)
DNA 1: CGTTGACCGTTGACCGAGTTGACTTTTTA
DNA 2: TAAAAAGTCAACTCGGTCAACGGTCAACG

Molecular target: GST-CaWRKYa (Capsicum annuum, UniProt Q1XD53 1-546)
Test: EMSA; 5 ug protein; EMSA: 4 C, 30 min, 5% native polyacrylamide gel in 0.5x TBE; 5 ug protein (0.5 ug in Fig. S5b); binding buffer, salt and pH not stated

Sequence of GST-CaWRKYa (Q1XD53 entry or part of it): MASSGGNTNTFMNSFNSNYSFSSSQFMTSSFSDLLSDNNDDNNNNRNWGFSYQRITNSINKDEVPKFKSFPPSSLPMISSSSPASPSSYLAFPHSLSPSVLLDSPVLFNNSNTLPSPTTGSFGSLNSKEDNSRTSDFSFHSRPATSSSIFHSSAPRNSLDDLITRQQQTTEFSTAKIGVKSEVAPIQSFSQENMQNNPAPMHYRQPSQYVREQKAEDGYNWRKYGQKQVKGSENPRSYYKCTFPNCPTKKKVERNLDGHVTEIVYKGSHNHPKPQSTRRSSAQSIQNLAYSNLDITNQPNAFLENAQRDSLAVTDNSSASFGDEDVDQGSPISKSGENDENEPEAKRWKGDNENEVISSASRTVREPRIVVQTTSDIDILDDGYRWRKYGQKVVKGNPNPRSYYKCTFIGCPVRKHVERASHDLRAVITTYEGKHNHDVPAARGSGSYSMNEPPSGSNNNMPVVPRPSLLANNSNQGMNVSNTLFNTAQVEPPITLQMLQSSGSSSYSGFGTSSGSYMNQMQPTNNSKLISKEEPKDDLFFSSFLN

Binder	binding result
B1	no binding
B2	binds
